Results from the nanobody polyreactivity screen of Harvey et al. (2022).

assay: yeast display, Sf9 membrane polyspecificity reagent, FACS + sequencing; frameworks hold sequencing errors
How it was run: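 Sorting gates, low and high (top ~1%), were placed on anti-HA fluorescence to track expression and on streptavidin fluorescence to track reagent binding. A clone's polyreactivity label is taken from the gate it came out of. The reagent was 10% biotinylated, detergent-solubilized Sf9 membrane, applied for 1 hour at 4 °C to galactose-induced yeast display cells.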

Sequence | polyreactivity (PSR sort gate)
QVQLVESGGGLVQAGGSLRLSCAASGSILFYAMVWYRQAPGKERELVAAITWRGGSTYYADSVKGRFTISRDNAKNSVYLQMNSLKPEDTAVYYCARDETGRIEGDYWGQGTQVTVSS | high polyreactivity
QVQLVESGGGLVQAGGSLRLSCAASGSILGGNAMGWYRKAPGKERELVAAITFSGGGTYYADSVKGRFTISRDNAKNTVYLHMNSLKPEDTAVYYCAADKDGYTYEFDYWGQGTQGTVSS | low polyreactivity
QVQLVESGGGLVQAGGSLRLSCAASGSILGINVMGWYRQAPGKERELVAAISRRGGSTYYADSVKGRFTISRDNAKNTVYLQMNSLKPEDTAVYYCAATRTARTMGYCGQGTQVTVSS | high polyreactivity
QVQLVESGGGLVQAGGSLRLSCAASGSILGLNAMGWYRQAPGKERELVAAITSRGGSTYYADSVKGRFTISRDNAKNTVYLQMNSLKPEDTAVYYCNREYVRVNYQYWYYAEYDYWGQGTQVTVSS | low polyreactivity
QVQLVESGGGLVQAGGSLRLSCAASGSILGLNVMGWYRQAPGTEREVVAAISRRGGSTYYADSVKGRFTISRDNAKNTVYLQMNSLKPEDTAVYYCAATRTARTMGYWGQGTQVTVSS | high polyreactivity
QVQLVESGGGLVQAGGSLRLSCAASGSILGLYAMGWYRQAPEKDRELVAASTWSGGSTYYADSVKGRFTISRDNAKNTVYLQMNSLKPEDTAVYYCAALARGYWVVNSLGSYDYWGQGTQVTVSS | high polyreactivity
QVQLVESGGGLVQAGGSLRLSCAASGSILGLYAMGWYRQAPGKERELVAAITYRGGRTDYADSVKGRFTISRDNAKNTVYLQMNSLKPEDTAVYYCAAGYLPRPRYSTSYLYYYWGQGTQVTVSS | high polyreactivity
QVQLVESGGGLVQAGGSLRLSCAASGSILGLYAMGWYRQAPGKERELVASITSSGSTYYADSVKGRFTISRDNAKNTVYLQMNSLKPEDTAVYYCAARYYYGRRYDYWGQGTQVTVSS | low polyreactivity
QVQLVESGGGLVQAGGSLRLSCAASGSILGVYTMGWDRQAPGKERELVAAITSSSSSTYADSVKGRFTISRDNAKNTVYLQMNSVIPEDTAVYYCATRGWSKQLYGGYTQYYYWGQGTQVTVSS | high polyreactivity
QVQLVESGGGLVQAGGSLRLSCAASGSILGYNAMGWYRQAPGKEREFVAAITYSGGTTYYADSVKGRFTISRDNAKNTVYLQMNSLKPEDTAVYYCAADYSVYDEFDYWGQGTQVTVSS | high polyreactivity
QVQLVESGGGLVQAGGSLRLSCAASGSILGYYAMGWYRQAPGKERELVAAISSGGSTNYADSVKGRFTISRDNAKNTVYLQMNSLKPEDTAVYYCAAGVTWPYRYVWYDYWGQGTQVTVSS | low polyreactivity
QVQLVESGGGLVQAGGSLRLSCAASGSILGYYVMGWYRQAPGKERELVAAISWSSGSTYYADSVKGRFTISRDNAKNTVYLQLNSLKPEDTAVYYCNASNVYFWFVTLEFDSWGQGTQVTVSS | low polyreactivity
QVQLVESGGGLVQAGGSLRLSCAASGSILIWNTMGWDRQAPGKDRELVAAISSGGSTYYADSVKGRFTISRDNAKNTVYLQMNSLKPEDTAVYYCNVDLPRVLTDDSWGQGTHVTVSS | low polyreactivity
QVQLVESGGGLVQAGGSLRLSCAASGSILKSYAMGWYRQAPGKERELVAAITYRDGSTYYADSVKGRFTISRDNAKNTVYLQMNSLKPEDTAVYYCAAEPSWWNVFYPGYNYWGQGTQVTVSA | high polyreactivity
QVQLVESGGGLVQAGGSLRLSCAASGSILKVYAMGWYRQAPGKERELVAGITRSGVRTNYADSVKGRFTISRDNAKNTVYLQMNSLKPEDTAVCYCAAVGYVYRTYWYTRQSTYEYWGQGTQVTVSS | high polyreactivity
QVQLVESGGGLVQAGGSLRLSCAASGSILLYYTMGWYRQAPGKERELVASITSGGRTYYADSVKGRFTISRDNAKNTVYLQMNSLKPEDTAVYYCAADVWKLYDYWGQGTQVTVSS | low polyreactivity

Sequence | polyreactivity (PSR sort gate)
QVQLVESGGGLVQAGGSLRLSCAASGSILNNYAMGWYRQAPGKERELVAAISSSGGTNYADSVKGRFTISRDNAKNTVYLPMNSLKPVDTAVYYCNADVLDGGYDYWGQGTQVTVSS | low polyreactivity
QVQLVESGGGLVQAGGSLRLSCAASGSILPRYAMGWYRQAPGKERELVAAITSGGITSYADSVKGRFTISRDNAKNTVYLQMNSLKPEDTAVYYCAADWYVIYDYWGQGTQVTVSS | low polyreactivity
QVQLVESGGGLVQAGGSLRLSCAASGSILPTNAMGWYRPAPGKERELVASITYNGGRTSYADSVKGRFTISRDNAKNTVYLQMNSLKPEDTAVYYCAARVWYQGYKSMGYWGQGTQVTVSS | high polyreactivity
QVQLVESGGGLVQAGGSLRLSCAASGSILPYNAMGWYRQAPGKERELVASISRGGGTNYADSVKGRFTISRDNAKNTVYLQMNSLKPEDTAVYYCAARTLRVDYDSHWYSLVDYWGQGTQVTVSS | low polyreactivity
QVQLVESGGGLVQAGGSLRLSCAASGSILPYNAMGWYRQAPGKERELVCSSSRGGGTNYADSVKGRFTISRDNAKNTVYLQMNSLKPEDTAVYYCAARTLRVDYDSHWYSLVDYWGQGTQVTVSS | low polyreactivity
QVQLVESGGGLVQAGGSLRLSCAASGSILPYYAMGWYRQAPGKERELVAAISDSGGSTYYADSVKGRFTISRDNSKNTVYLQMNILKPEDTAVYYCNAVVRSTAHGYWGQGTQVTVSS | high polyreactivity
QVQLVESGGGLVQAGGSLRLSCAASGSILQINPMGWYRPAPAKERDLVAANDWGGGDTYYADSVKGRFTIARDNAKNTVYVQMISLKTEDTAVYYCAAEGVSWYVWDFYDIYGYWGHGTQVTVSS | high polyreactivity
QVQLVESGGGLVQAGGSLRLSCAASGSILQRNAMGWYRHARGTERELVAAISWSGDNTYYADSVKGRFTISRDNAKNTVYLQMISLKPEDTAVYYCATDDDIYFQEYDYWGQGTQVTVSA | low polyreactivity
QVQLVESGGGLVQAGGSLRLSCAASGSILRLYVMGWYIQAPGKDRELVADISDRGGSTYYADSVKGRFTISRDNAKNTVYLQMNSLKPEDTAVYYCAAEWGQRGGGGYYYWGQGTQVTVSS | low polyreactivity
QVQLVESGGGLVQAGGSLRLSCAASGSILRQYAMGWYRQAPGKERELVATITGDGSTNYADSVKGRFTISRDNAKNTVYLQMNSLKPEDTAVYYCNTALTYPYPNVEDLVYGFKLDYWGQGTQVTVSS | low polyreactivity
QVQLVESGGGLVQAGGSLRLSCAASGSILRQYAMGWYRQAPGKERELVATITGDGSTNYADSVKGRFTISRDNAKNTVYLQMNSLKPEDTAVYYCNTYLTYPYPNVEVLVYGFKLDYWGQGTQVTVSS | low polyreactivity
QVQLVESGGGLVQAGGSLRLSCAASGSILRSNAMGWYIQAPGKERELVATITNSGGSTYSDSVKGSFTISRDNAKNTVYVQMNSLKPEVTAVYYCAKAGAGESIAKYDYWGQGTQVTVSS | low polyreactivity
QVQLVESGGGLVQAGGSLRLSCAASGSILRYYAMGWFRQAPGKERELVAAISYSGGSTYYADSVKGRFTISRDNAKNTVYLQMNSLKPEDTAVYYCNKLYDRGYDYWGQGTQVTVSS | high polyreactivity
QVQLVESGGGLVQAGGSLRLSCAASGSILSFNAMGWYRQAPGKERELVAAICRGGSTYYADSVKGRFTISRDNAKNTVYLQMNSLKPEDTAVYYCAVQLRRHVDMDYWGQGTQVTVSS | high polyreactivity
QVQLVESGGGLVQAGGSLRLSCAASGSILSYYAMGWYRQAPGKERELVAAISKSGGRTYYADSVKGRFTISRDNAKNTVYLQMNRLKPEDTAVYYCAAPATYKYDYWGQGTQVTVSS | high polyreactivity
